Test results published in US20250327097A1, “ORGANISMS PRODUCING LESS CROTONIC ACID” (Global Bioenergies, priority 2021, published 2025).

System: 3-methylcrotonic acid
Assay type: biochemical, Yersinia frederiksenii
Design: key: “+” representing a low increase in activity; “++++” representing a high increase in activity

Row | Molecule | Activity relative to WT
1 | I283T-N285P-N287T-Q290E-S322T-N388M-K394R-i424aW-C430A-L432F-L434W-S436N-dG462 (protein) MFLKSLREQINLLKRQGDLRIINRPVDSYLEAAAIIRRSTETKAPVPLMTNIKGYPGCSIVGGLAALSSNPEYPLSRVAMSLGLSTTASAQSIVQYLIDGLKKTPYLPVEIDSNSAPCKQNILRGEDASLAHFPIPQVHQHDGNRYVNTWGVFIVESPDGQWCNWSIQRVQYLNDRQMIALVFPSQHISDIWEEWVKIGKPMPYALVQGCEPIVPYIAGLPLLERNVNEAEYIGALYGKGIEVVKCETHDLRVPASSEVVIEGYFAITREGVEGPFGEFAGYTPPETSLEPILSITAISWQDDPIWPVVAEGKPVDEYHTCTGIGDAAAIQNVLLTANLPVSFVWVPLYSACHLMIVSINRHWRQTHPDLTSEQLTKKVGDVIHQTRMSIKLPRIVVLDDDVDPADTESLLWALATRIHPERKRYFYESAIFPWLNCYSEEERHNRKGKRVIIDALLPENHGAISSFDYAYPDDIKQRVLMHWETDFSHD | ++++
2 | S322T-N388M-K394R-C430N-L432F-L434W-S436N (protein) MFLKSLREQINLLKRQGDLRIINRPVDSYLEAAAIIRRSTETKAPVPLMTNIKGYPGCSIVGGLAALSSNPEYPLSRVAMSLGLSTTASAQSIVQYLIDGLKKTPYLPVEIDSNSAPCKQNILRGEDASLAHFPIPQVHQHDGNRYVNTWGVFIVESPDGQWCNWSIQRVQYLNDRQMIALVFPSQHISDIWEEWVKIGKPMPYALVQGCEPIVPYIAGLPLLERNVNEAEYIGALYGKGIEVVKCETHDLRVPASSEVVIEGYFAITREGVEGPFGEFAGYIPNENSLQPILSITAISWQDDPIWPVVAEGKPVDEYHTCTGIGDAAAIQNVLLTANLPVSFVWVPLYSACHLMIVSINRHWRQTHPDLTSEQLTKKVGDVIHQTRMSIKLPRIVVLDDDVDPADTESLLWALATRIHPERKRYFYESNIFPWLNCYSEEERHNRKGKRVIIDALLPENHGAISSFDYAYPDDIKQRVLMHWETDFSHD | +
3 | I283T-N285P-N287T-Q290E-S322T-N388M-K394R-i424aL-C430A-L432F-L434W-S436N-dG462 (protein) MFLKSLREQINLLKRQGDLRIINRPVDSYLEAAAIIRRSTETKAPVPLMTNIKGYPGCSIVGGLAALSSNPEYPLSRVAMSLGLSTTASAQSIVQYLIDGLKKTPYLPVEIDSNSAPCKQNILRGEDASLAHFPIPQVHQHDGNRYVNTWGVFIVESPDGQWCNWSIQRVQYLNDRQMIALVFPSQHISDIWEEWVKIGKPMPYALVQGCEPIVPYIAGLPLLERNVNEAEYIGALYGKGIEVVKCETHDLRVPASSEVVIEGYFAITREGVEGPFGEFAGYTPPETSLEPILSITAISWQDDPIWPVVAEGKPVDEYHTCTGIGDAAAIQNVLLTANLPVSFVWVPLYSACHLMIVSINRHWRQTHPDLTSEQLTKKVGDVIHQTRMSIKLPRIVVLDDDVDPADTESLLWALATRIHPERKRYFYESAIFPWLNCYSEEERHNRKGKRVIIDALLPENHGAISSFDYAYPDDIKQRVLMHWETDFSHD | ++++
4 | I283T-N285P-N287T-Q290E-S322T-N388M-K394R-i424aS-C430A-L432F-L434W-S436N-dG462 (protein) MFLKSLREQINLLKRQGDLRIINRPVDSYLEAAAIIRRSTETKAPVPLMTNIKGYPGCSIVGGLAALSSNPEYPLSRVAMSLGLSTTASAQSIVQYLIDGLKKTPYLPVEIDSNSAPCKQNILRGEDASLAHFPIPQVHQHDGNRYVNTWGVFIVESPDGQWCNWSIQRVQYLNDRQMIALVFPSQHISDIWEEWVKIGKPMPYALVQGCEPIVPYIAGLPLLERNVNEAEYIGALYGKGIEVVKCETHDLRVPASSEVVIEGYFAITREGVEGPFGEFAGYTPPETSLEPILSITAISWQDDPIWPVVAEGKPVDEYHTCTGIGDAAAIQNVLLTANLPVSFVWVPLYSACHLMIVSINRHWRQTHPDLTSEQLTKKVGDVIHQTRMSIKLPRIVVLDDDVDPADTESLLWALATRIHPERKRYFYESAIFPWLNCYSEEERHNRKGKRVIIDALLPENHGAISSFDYAYPDDIKQRVLMHWETDFSHD | ++++
5 | I283T-N285P-N287T-Q290E-S322T-N388M-K394R-i424aD-C430A-L432F-L434W-S436N-dG462 (protein) MFLKSLREQINLLKRQGDLRIINRPVDSYLEAAAIIRRSTETKAPVPLMTNIKGYPGCSIVGGLAALSSNPEYPLSRVAMSLGLSTTASAQSIVQYLIDGLKKTPYLPVEIDSNSAPCKQNILRGEDASLAHFPIPQVHQHDGNRYVNTWGVFIVESPDGQWCNWSIQRVQYLNDRQMIALVFPSQHISDIWEEWVKIGKPMPYALVQGCEPIVPYIAGLPLLERNVNEAEYIGALYGKGIEVVKCETHDLRVPASSEVVIEGYFAITREGVEGPFGEFAGYTPPETSLEPILSITAISWQDDPIWPVVAEGKPVDEYHTCTGIGDAAAIQNVLLTANLPVSFVWVPLYSACHLMIVSINRHWRQTHPDLTSEQLTKKVGDVIHQTRMSIKLPRIVVLDDDVDPADTESLLWALATRIHPERKRYFYESAIFPWLNCYSEEERHNRKGKRVIIDALLPENHGAISSFDYAYPDDIKQRVLMHWETDFSHD | ++++
6 | I283T-N285P-N287T-Q290E-S322T-N388M-K394R-i426aL-C430A-L432F-L434W-S436N-dG462 (protein) MFLKSLREQINLLKRQGDLRIINRPVDSYLEAAAIIRRSTETKAPVPLMTNIKGYPGCSIVGGLAALSSNPEYPLSRVAMSLGLSTTASAQSIVQYLIDGLKKTPYLPVEIDSNSAPCKQNILRGEDASLAHFPIPQVHQHDGNRYVNTWGVFIVESPDGQWCNWSIQRVQYLNDRQMIALVFPSQHISDIWEEWVKIGKPMPYALVQGCEPIVPYIAGLPLLERNVNEAEYIGALYGKGIEVVKCETHDLRVPASSEVVIEGYFAITREGVEGPFGEFAGYTPPETSLEPILSITAISWQDDPIWPVVAEGKPVDEYHTCTGIGDAAAIQNVLLTANLPVSFVWVPLYSACHLMIVSINRHWRQTHPDLTSEQLTKKVGDVIHQTRMSIKLPRIVVLDDDVDPADTESLLWALATRIHPERKRYFYESAIFPWLNCYSEEERHNRKGKRVIIDALLPENHGAISSFDYAYPDDIKQRVLMHWETDFSHD | ++++
7 | I283T-N285P-N287T-Q290E-S322T-N388M-K394R-i429aN-C430A-L432F-L434W-S436N-dG462 (protein) MFLKSLREQINLLKRQGDLRIINRPVDSYLEAAAIIRRSTETKAPVPLMTNIKGYPGCSIVGGLAALSSNPEYPLSRVAMSLGLSTTASAQSIVQYLIDGLKKTPYLPVEIDSNSAPCKQNILRGEDASLAHFPIPQVHQHDGNRYVNTWGVFIVESPDGQWCNWSIQRVQYLNDRQMIALVFPSQHISDIWEEWVKIGKPMPYALVQGCEPIVPYIAGLPLLERNVNEAEYIGALYGKGIEVVKCETHDLRVPASSEVVIEGYFAITREGVEGPFGEFAGYTPPETSLEPILSITAISWQDDPIWPVVAEGKPVDEYHTCTGIGDAAAIQNVLLTANLPVSFVWVPLYSACHLMIVSINRHWRQTHPDLTSEQLTKKVGDVIHQTRMSIKLPRIVVLDDDVDPADTESLLWALATRIHPERKRYFYESAIFPWLNCYSEEERHNRKGKRVIIDALLPENHGAISSFDYAYPDDIKQRVLMHWETDFSHD | ++++
8 | I283T-N285P-N287T-Q290E-S322T-N388M-K394R-C430A-i430aC-L432F-L434W-S436N-dG462 (protein) MFLKSLREQINLLKRQGDLRIINRPVDSYLEAAAIIRRSTETKAPVPLMTNIKGYPGCSIVGGLAALSSNPEYPLSRVAMSLGLSTTASAQSIVQYLIDGLKKTPYLPVEIDSNSAPCKQNILRGEDASLAHFPIPQVHQHDGNRYVNTWGVFIVESPDGQWCNWSIQRVQYLNDRQMIALVFPSQHISDIWEEWVKIGKPMPYALVQGCEPIVPYIAGLPLLERNVNEAEYIGALYGKGIEVVKCETHDLRVPASSEVVIEGYFAITREGVEGPFGEFAGYTPPETSLEPILSITAISWQDDPIWPVVAEGKPVDEYHTCTGIGDAAAIQNVLLTANLPVSFVWVPLYSACHLMIVSINRHWRQTHPDLTSEQLTKKVGDVIHQTRMSIKLPRIVVLDDDVDPADTESLLWALATRIHPERKRYFYESAIFPWLNCYSEEERHNRKGKRVIIDALLPENHGAISSFDYAYPDDIKQRVLMHWETDFSHD | ++++
9 | I283T-N285P-N287T-Q290E-S322T-N388M-K394R-C430A-i430aG-L432F-L434W-S436N-dG462 (protein) MFLKSLREQINLLKRQGDLRIINRPVDSYLEAAAIIRRSTETKAPVPLMTNIKGYPGCSIVGGLAALSSNPEYPLSRVAMSLGLSTTASAQSIVQYLIDGLKKTPYLPVEIDSNSAPCKQNILRGEDASLAHFPIPQVHQHDGNRYVNTWGVFIVESPDGQWCNWSIQRVQYLNDRQMIALVFPSQHISDIWEEWVKIGKPMPYALVQGCEPIVPYIAGLPLLERNVNEAEYIGALYGKGIEVVKCETHDLRVPASSEVVIEGYFAITREGVEGPFGEFAGYTPPETSLEPILSITAISWQDDPIWPVVAEGKPVDEYHTCTGIGDAAAIQNVLLTANLPVSFVWVPLYSACHLMIVSINRHWRQTHPDLTSEQLTKKVGDVIHQTRMSIKLPRIVVLDDDVDPADTESLLWALATRIHPERKRYFYESAIFPWLNCYSEEERHNRKGKRVIIDALLPENHGAISSFDYAYPDDIKQRVLMHWETDFSHD | ++++
10 | I283T-N285P-N287T-Q290E-S322T-N388M-K394R-C430A-i430aN-L432F-L434W-S436N-dG462 (protein) MFLKSLREQINLLKRQGDLRIINRPVDSYLEAAAIIRRSTETKAPVPLMTNIKGYPGCSIVGGLAALSSNPEYPLSRVAMSLGLSTTASAQSIVQYLIDGLKKTPYLPVEIDSNSAPCKQNILRGEDASLAHFPIPQVHQHDGNRYVNTWGVFIVESPDGQWCNWSIQRVQYLNDRQMIALVFPSQHISDIWEEWVKIGKPMPYALVQGCEPIVPYIAGLPLLERNVNEAEYIGALYGKGIEVVKCETHDLRVPASSEVVIEGYFAITREGVEGPFGEFAGYTPPETSLEPILSITAISWQDDPIWPVVAEGKPVDEYHTCTGIGDAAAIQNVLLTANLPVSFVWVPLYSACHLMIVSINRHWRQTHPDLTSEQLTKKVGDVIHQTRMSIKLPRIVVLDDDVDPADTESLLWALATRIHPERKRYFYESAIFPWLNCYSEEERHNRKGKRVIIDALLPENHGAISSFDYAYPDDIKQRVLMHWETDFSHD | ++++
